From article PMC7198388, “Radiohybrid Ligands: A Novel Tracer Concept Exemplified by ^18F- or ^68Ga-Labeled rhPSMA Inhibitors” (Journal of Nuclear Medicine, 2020)
Like-named read-outs stand apart in the source and are kept apart here.

Assays:
LNCaP cells = experiment: Internalization into LNCaP cells, normalized to (125I-I-BA)KuE; type: cell-based, human; conditions: LNCaP cells 1.25 x 10^5/well, 1 h, 37°C, ligand 0.5 nM/well; % of specific internalization of (125I-I-BA)KuE; 68Ga-19F or 18F free-chelator form; mean ± SD, n = 3
Protocol: Internalization studies were carried out according to a previously published procedure (1). Briefly, LNCaP cells were harvested 24 ± 2 hours before the experiment and seeded in poly -L-lysine coated 24-well plates […]
After removal of the culture medium, the cells were washed once with 500 µL DMEM -F12 (5% BSA) and left to equilibrate for at least 15 min at 37 °C in 200 µL DMEM-F12 (5% BSA). Each well was treated with either 25 µL of either DMEM-F12 (5% BSA, control) or 25 µL of a 100 µM PMPA (2-(Phosphonomethyl)-pentandioic acid, Tocris Bioscience, Bristol, UK) solution in PBS, for blockade. Next, 25 µL of the radioactive-labelled PSMA inhibitor (5.0 nM in PBS) was added and the cells were incubat ed at 37 °C for 60 min. The experiment was terminated by placing the 24 -well plate on ice for 3 min and consecutive removal of the medium. Each well was carefully washed with 250 µL of ice-cold HBSS. Both fractions from the first steps, representing the amount of free radioligand, were combined. Removal of surface bound activity was accomplished by incubation of the cells with 250 µL of ice-cold PMPA (10 µM in PBS) solution for 5 min […]
and rinsed again with another 250 µL of ice-cold PBS. The internalized activity was determined by incubation of the cells in 250 µL 1 M aqueous NaOH for at least 10 min. The obtained fractions were combined with those of the subsequent wash step with 250 µL 1 M aqueous NaOH. Each experiment (control and blockade) was performed in triplicate. Free, surface bound and internalized activity was quantified in a γ-counter. All internalization studies were accompanied by external reference studies, using […]
Data were corrected for non-specific

human serum albumin = target: T1, human serum albumin (Homo sapiens, UniProt P02768); experiment: HSA binding by HPLC on Chiralpak HSA column; type: in vitro ADME; conditions: affinity HPLC, 50 mM NH4OAc pH 6.9/isopropanol gradient, r.t., 0.5 mg/mL, calibrated with nine reference substances, natGa-19F form
T1 construct: purchased Daicel H13H-2433
Protocol: with water (10 mL). The purified product was eluted with 50% aqueous ethanol (2 mL), phosphate buffered saline (PBS, 1 mL) and again water (1 mL). After removing ethanol in vacuo, purity of the radiolabelled compounds was determined by radio-HPLC and radio-TLC (ITLC-SG chromatography paper, mobile phase: 0.1 M trisodium citrate and Silica gel 60 RP-18 F254s, mobile phase: 3:2 mixture (v/v) of MeCN in H2O supplemented with 10% of 2 M NaOAc solution and 1% of TFA).
6. Human Serum Albumin (HSA) Binding
HSA binding of the PSMA-addressing ligands was determined according to a previously published procedure via HPLC (7). A Chiralpak HSA column (50 x 3 mm, 5 μm, H13H-2433, Daicel, Tokyo, Japan) […]
literature, in the range of 13 to 99% (7,8). All substances, including the examined PSMA ligands, were […]
final concentration of 0.5 mg/mL.
(Northampton, United States).
Affinity determinations (IC50)
The PSMA affinity (IC50) determinations and synthesis of the radioiodinated reference ligand (((S)-1- […]
described previously (1). Briefly, the respective ligand was diluted (serial dilution 10-4 to 10-10) in Hank’s balanced salt solution (HBSS, Biochrom). In the case of metal-complexed ligands, the crude reaction mixture containing the purified metal-complexed inhibitor and remaining metal nitrate, was diluted THE JOURNAL OF NUCLEAR MEDICINE • Vol. 61 • No. 5 • May 2020 Wurzer et al.

[1] = Biodistribution in LNCaP tumor-bearing CB-17 SCID mice; conditions: male, mouse, in vivo, iv, 0.2 nmol, total radioactivity, 1 h p.i., i.v. tail vein, mean ± SD, n = 3 (n = 4 for rhPSMA-10)
Excerpt: Mice were used for experiments when tumors had grown to a diameter of 5–10 mm (3–6 wk after inoculation).
Selected organs were removed, weighed, and measured in a γ-counter.

[2] = read-out: Biodistribution, Adrenals
[3] = read-out: Biodistribution, Blood
[4] = read-out: Biodistribution, Bone
[5] = read-out: Biodistribution, Heart
[6] = read-out: Biodistribution, Intestine
[7] = read-out: Biodistribution, Kidneys
[8] = read-out: Biodistribution, Liver
[9] = read-out: Biodistribution, Lung
[10] = read-out: Biodistribution, Muscle
[11] = read-out: Biodistribution, Pancreas
[12] = read-out: Biodistribution, Spleen
[13] = read-out: Biodistribution, Stomach
[14] = LNCaP tumor, read-out: Biodistribution, Tumor

T1 sequence (P02768 25-609): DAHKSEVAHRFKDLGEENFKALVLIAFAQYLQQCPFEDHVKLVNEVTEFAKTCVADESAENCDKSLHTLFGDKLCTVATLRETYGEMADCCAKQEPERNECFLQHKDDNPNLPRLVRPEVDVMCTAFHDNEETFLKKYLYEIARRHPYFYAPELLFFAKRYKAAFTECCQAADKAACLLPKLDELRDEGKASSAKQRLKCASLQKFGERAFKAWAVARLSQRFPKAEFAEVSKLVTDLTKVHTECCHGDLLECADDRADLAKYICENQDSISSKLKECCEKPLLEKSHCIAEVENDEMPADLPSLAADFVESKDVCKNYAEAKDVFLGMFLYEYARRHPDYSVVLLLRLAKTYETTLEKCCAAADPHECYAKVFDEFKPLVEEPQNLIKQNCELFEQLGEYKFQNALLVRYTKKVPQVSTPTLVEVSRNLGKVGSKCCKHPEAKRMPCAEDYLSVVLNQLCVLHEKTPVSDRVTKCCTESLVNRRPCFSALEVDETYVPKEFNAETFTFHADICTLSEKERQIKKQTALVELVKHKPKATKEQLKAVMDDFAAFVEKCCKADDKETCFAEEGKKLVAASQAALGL

CC(C)(C)[Si](F)(c1ccc(C(=O)NC[C@@H](C(=O)N[C@H](CCCCNC(=O)CCCCCCC(=O)NCCCC[C@H](NC(=O)N[C@@H](CCC(=O)O)C(=O)O)C(=O)O)C(=O)O)n2cc(CNC(=O)CCP(=O)(O)CN3CCN(CP(=O)(O)CCC(=O)O)CCN(CP(=O)(O)CCC(=O)O)CC3)nn2)cc1)C(C)(C)C [68/natGa-19/18F-rhPSMA-5, metal not drawn]
Internalization (LNCaP cells): 43 ± 3 % of reference

CC(C)(C)[Si](F)(c1ccc(C(=O)NC[C@@H](NC(=O)CCC(C(=O)O)N2CCN(CC(=O)O)CCN(CC(=O)O)CCN(CC(=O)O)CC2)C(=O)N[C@H](CCCCNC(=O)CCCCCCC(=O)NCCCC[C@H](NC(=O)N[C@@H](CCC(=O)O)C(=O)O)C(=O)O)C(=O)O)cc1)C(C)(C)C (some centres unmarked) [68/natGa-19/18F-rhPSMA-6, metal not drawn]
Internalization (LNCaP cells): 33 ± 2 % of reference

CC(C)(C)[Si](F)(c1ccc(C(=O)N[C@H](CNC(=O)CCC(C(=O)O)N2CCN(CC(=O)O)CCN(CC(=O)O)CCN(CC(=O)O)CC2)C(=O)N[C@H](CCCCNC(=O)CCC(=O)NCCC[C@@H](NC(=O)CC[C@H](NC(=O)N[C@@H](CCC(=O)O)C(=O)O)C(=O)O)C(=O)O)C(=O)O)cc1)C(C)(C)C (some centres unmarked) [68/natGa-19/18F-rhPSMA-8, metal not drawn]
Internalization (LNCaP cells): 98 ± 12 % of reference | HSA-binding (human serum albumin): 97% | tissue uptake at 1 h [1, 2]: 2.2 ± 0.8 %ID/g | tissue uptake at 1 h [1, 3]: 1.7 ± 0.1 %ID/g | tissue uptake at 1 h [1, 4]: 0.32 ± 0.07 %ID/g | tissue uptake at 1 h [1, 5]: 0.93 ± 0.08 %ID/g | tissue uptake at 1 h [1, 6]: 0.35 ± 0.01 %ID/g | tissue uptake at 1 h [1, 7]: 82.3 ± 5.9 %ID/g | tissue uptake at 1 h [1, 8]: 0.79 ± 0.17 %ID/g | tissue uptake at 1 h [1, 9]: 1.3 ± 0.2 %ID/g | tissue uptake at 1 h [1, 10]: 0.24 ± 0.02 %ID/g | tissue uptake at 1 h [1, 11]: 0.48 ± 0.11 %ID/g | tissue uptake at 1 h [1, 12]: 6.3 ± 1.5 %ID/g | tissue uptake at 1 h [1, 13]: 0.42 ± 0.11 %ID/g | tissue uptake at 1 h [1, 14]: 6.5 ± 0.8 %ID/g

CC(C)(C)[Si](F)(c1ccc(C(=O)NC[C@@H](C(=O)N[C@H](CCCCNC(=O)CCC(=O)NCCC[C@@H](NC(=O)CC[C@H](NC(=O)N[C@@H](CCC(=O)O)C(=O)O)C(=O)O)C(=O)O)C(=O)O)n2cc(CNC(=O)CCP(=O)(O)CN3CCN(CP(=O)(O)CCC(=O)O)CCN(CP(=O)(O)CCC(=O)O)CC3)nn2)cc1)C(C)(C)C [68/natGa-19/18F-rhPSMA-9, metal not drawn]
Internalization (LNCaP cells): 180 ± 12 % of reference | HSA-binding (human serum albumin): 95% | tissue uptake at 1 h [1, 2]: 2.7 ± 0.2 %ID/g | tissue uptake at 1 h [1, 3]: 0.46 ± 0.11 %ID/g | tissue uptake at 1 h [1, 4]: 0.18 ± 0.05 %ID/g | tissue uptake at 1 h [1, 5]: 0.48 ± 0.17 %ID/g | tissue uptake at 1 h [1, 6]: 0.44 ± 0.34 %ID/g | tissue uptake at 1 h [1, 7]: 54.9 ± 3 %ID/g | tissue uptake at 1 h [1, 8]: 0.42 ± 0.07 %ID/g | tissue uptake at 1 h [1, 9]: 0.94 ± 0.2 %ID/g | tissue uptake at 1 h [1, 10]: 0.19 ± 0.06 %ID/g | tissue uptake at 1 h [1, 11]: 0.39 ± 0.09 %ID/g | tissue uptake at 1 h [1, 12]: 25.4 ± 5.2 %ID/g | tissue uptake at 1 h [1, 13]: 0.48 ± 0.4 %ID/g | tissue uptake at 1 h [1, 14]: 7.2 ± 0.6 %ID/g
